Assays:
HeLa Kyoto [1] = test: solubility in G1/S (NP-40 vs SDS abundance) (log2 ratio); higher = more soluble; settings: cell cycle stage: G1/S
HeLa Kyoto [2] = test: melting temperature (median over replicates), in situ; higher = more thermally stable
HeLa Kyoto [3] = test: solubility change mitosis vs G1/S (difference of NP-40 vs SDS log2 ratios) (log2 ratio difference); higher = more soluble in mitosis
HeLa Kyoto [4] = test: thermal stability score vs G1/S (z-score of summed log2 fold changes over temperatures); higher = more thermally stable than in G1/S
[5] = cell cycle stage: early G1 (4.5 h after nocodazole release)
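Throughout, for melting temperature (median over replicates), in situ: HeLa Kyoto cells synchronized by double thymidine or nocodazole block, proteins quantified by TMT10plex mass spectrometry, three independent biological replicates.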
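Throughout, for solubility change mitosis vs G1/S (difference of NP-40 vs SDS log2 ratios): synchronized HeLa Kyoto cells (double thymidine block for G1/S, nocodazole release for mitosis), protein amounts in NP-40 versus SDS lysates quantified by mass spectrometry, three biological replicates.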
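Throughout, for solubility in G1/S (NP-40 vs SDS abundance): HeLa Kyoto cells arrested at G1/S by double thymidine block, proteins quantified by TMT10plex mass spectrometry in mild NP-40 versus SDS extracts, three biological replicates.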
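Throughout, for thermal stability score vs G1/S (z-score of summed log2 fold changes over temperatures): synchronized HeLa Kyoto cells, proteins quantified by TMT10plex mass spectrometry, three biological replicates, mitosis taken 0.5 h after nocodazole release, G1/S directly after double thymidine block.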

| Sequence | solubility in G1/S (log2) (HeLa Kyoto [1]) | melting temperature (HeLa Kyoto [2]; cell cycle stage: G1/S) | melting temperature (HeLa Kyoto [2]; cell cycle stage: mitosis) | solubility change mitosis (log2) (HeLa Kyoto [3]) | thermal stability score (HeLa Kyoto [4]; [5]) | thermal stability score (HeLa Kyoto [4]; cell cycle stage: mitosis) |
| --- | --- | --- | --- | --- | --- | --- |
| MDVFLMIRRHKTTIFTDAKESSTVFELKRIVEGILKRPPDEQRLYKDDQLLDDGKTLGECGFTSQTARPQAPATVGLAFRADDTFEALCIEPFSSPPELPDVMKPQDSGSSANEQAVQ [TCEB2] | 0.109 | 52 °C | 51.8 °C | 0.00166 | 1.2 | -0.75 |
| MARENGESSSSWKKQAEDIKKIFEFKETLGTGAFSEVVLAEEKATGKLFAVKCIPKKALKGKESSIENEIAVLRKIKHENIVALEDIYESPNHLYLVMQLVSGGELFDRIVEKGFYTEKDASTLIRQVLDAVYYLHRMGIVHRDLKPENLLYYSQDEESKIMISDFGLSKMEGKGDVMSTACGTPGYVAPEVLAQKPYSKAVDCWSIGVIAYILLCGYPPFYDENDSKLFEQILKAEYEFDSPYWDDISDSAKDFIRNLMEKDPNKRYTCEQAARHPWIAGDTALNKNIHESVSAQIRKNFAKSKWRQAFNATAVVRHMRKLHLGSSLDSSNASVSSSLSLASQKDCLAPSTLCSFISSSSGVSGVGAERRPRPTTVTAVHSGSK [CAMK1D] | 0.0619 | 49.8 °C | 50.3 °C | -0.0784 | 0.0756 | 0.252 |
| MAAAAPDSRVSEEENLKKTPKKKMKMVTGAVASVLEDEATDTSDSEGSCGSEKDHFYSDDDAIEADSEGDAEPCDKENENDGESSVGTNMGWADAMAKVLNKKTPESKPTILVKNKKLEKEKEKLKQERLEKIKQRDKRLEWEMMCRVKPDVVQDKETERNLQRIATRGVVQLFNAVQKHQKNVDEKVKEAGSSMRKRAKLISTVSKKDFISVLRGMDGSTNETASSRKKPKAKQTEVKSEEGPGWTILRDDFMMGASMKDWDKESDGPDDSRPESASDSDT [RRP15] | -1.21 |  | 54.2 °C | 0.962 | -5.18 | -11.7 |
| MNPTETKAIPVSQQMEGPHLPNKKKHKKQAVKTEPEKKSQSTKLSVVHEKKSQEGKPKEHTEPKSLPKQASDTGSNDAHNKKAVSRSAEQQPSEKSTEPKTKPQDMISAGGESVAGITAISGKPGDKKKEKKSLTPAVPVESKPDKPSGKSGMDAALDDLIDTLGGPEETEEENTTYTGPEVSDPMSSTYIEELGKREVTIPPKYRELLAKKEGITGPPADSSKPIGPDDAIDALSSDFTCGSPTAAGKKTEKEESTEVLKAQSAGTVRSAAPPQEKKRKVEKDTMSDQALEALSASLGTRQAEPELDLRSIKEVDEAKAKEEKLEKCGEDDETIPSEYRLKPATDKDGKPLLPEPEEKPKPRSESELIDELSEDFDRSECKEKPSKPTEKTEESKAAAPAPVSEAVCRTSMCSIQSAPPEPATLKGTVPDDAVEALADSLGKKEADPEDGKPVMDKVKEKAKEEDREKLGEKEETIPPDYRLEEVKDKDGKPLLPKESKEQLPPMSEDFLLDALSEDFSGPQNASSLKFEDAKLAAAISEVVSQTPASTTQAGAPPRDTSQSDKDLDDALDKLSDSLGQRQPDPDENKPMEDKVKEKAKAEHRDKLGERDDTIPPEYRHLLDDNGQDKPVKPPTKKSEDSKKPADDQDPIDALSGDLDSCPSTTETSQNTAKDKCKKAASSSKAPKNGGKAKDSAKTTEETSKPKDD [CAST] | 0.36 |  |  | 0.0186 | -1.5 | -2.61 |
| MARACLQAVKYLMFAFNLLFWLGGCGVLGVGIWLAATQGSFATLSSSFPSLSAANLLIITGAFVMAIGFVGCLGAIKENKCLLLTFFLLLLLVFLLEATIAILFFAYTDKIDRYAQQDLKKGLHLYGTQGNVGLTNAWSIIQTDFRCCGVSNYTDWFEVYNATRVPDSCCLEFSESCGLHAPGTWWKAPCYETVKVWLQENLLAVGIFGLCTALVQILGLTFAMTMYCQVVKADTYCA [TSPAN4] | -0.165 |  |  | 0.125 | -5.28e-17 | 1.16e-18 |
| MAGVGDAAAPGEGGGGGVDGPQRDGRGEAEQPGGSGGQGPPPAPQLTETLGFYESDRRRERRRGRTELSLLRFLSAELTRGYFLEHNEAKYTERRERVYTCLRIPRELEKLMVFGIFLCLDAFLYVFTLLPLRVFLALFRLLTLPCYGLRDRRLLQPAQVCDILKGVILVICYFMMHYVDYSMMYHLIRGQSVIKLYIIYNMLEVADRLFSSFGQDILDALYWTATEPKERKRAHIGVIPHFFMAVLYVFLHAILIMVQATTLNVAFNSHNKSLLTIMMSNNFVEIKGSVFKKFEKNNLFQMSNSDIKERFTNYVLLLIVCLRNMEQFSWNPDHLWVLFPDVCMVIASEIAVDIVKHAFITKFNDITADVYSEYRASLAFDLVSSRQKNAYTDYSDSVARRMGFIPLPLAVLLIRVVTSSIKVQGILSYACVILFYFGLISLKVLNSIVLLGKSCQYVKEAKMEEKLSNPPATCTPGKPSSKSQNKCKPSQGLSTEENLSASITKQPIHQKENIIPLLVTSNSDQFLTTPDGDEKDITQDNSELKHRSSKKDLLEIDRFTICGNRID [TAPT1] | -0.313 |  |  | 0.0176 | -2.91 | -4.92 |
| MSGDTCLCPASGAKPKLSGFKGGGLGNKYVQLNVGGSLYYTTVRALTRHDTMLKAMFSGRMEVLTDKEGWILIDRCGKHFGTILNYLRDDTITLPQNRQEIKELMAEAKYYLIQGLVNMCQSALQDKKDSYQPVCNIPIITSLKEEERLIESSTKPVVKLLYNRSNNKYSYTSNSDDHLLKNIELFDKLSLRFNGRVLFIKDVIGDEICCWSFYGQGRKLAEVCCTSIVYATEKKQTKVEFPEARIYEETLNVLLYETPRVPDNSLLEATSRSRSQASPSEDEETFELRDRVRRIHVKRYSTYDDRQLGHQSTHRD [TNFAIP1] | -1.22 |  |  | 0.627 | 1.18e-17 | -0.17 |
| MPFLHGFRRIIFEYQPLVDAILGSLGIQDPERQESLDRPSYVASEESRILVLTELLERKAHSPFYQEGVSNALLKMAELGLTRAADVLLRHGANLNFEDPVTYYTALHIAVLRNQPDMVELLVHHGADVNRRDRIHESSPLDLASEEPERLPCLQRLLDLGADVNAADKHGKTALLHALASSDGVQIHNTENIRLLLEGGADVKATTKDGDTVFTCIIFLLGETVGGDKEEAQMINRFCFQVTRLLLAHGADPSECPAHESLTHICLKSFKLHFPLLRFLLESGAAYNCSLHGASCWSGFHIIFERLCSHPGCTEDESHADLLRKAETVLDLMVTNSQKLQLPENFDIHPVGSLAEKIQALHFSLRQLESYPPPLKHLCRVAIRLYLQPWPVDVKVKALPLPDRLKWYLLSEHSGSVEDDI [ASB6] | 0.206 |  |  | 0.0228 | 0.0535 | 0.637 |
| MEEEDEEARALLAGGPDEADRGAPAAPGALPALCDPSRLAHRLLVLLLMCFLGFGSYFCYDNPAALQTQVKRDMQVNTTKFMLLYAWYSWPNVVLCFFGGFLIDRVFGIRWGTIIFSCFVCIGQVVFALGGIFNAFWLMEFGRFVFGIGGESLAVAQNTYAVSWFKGKELNLVFGLQLSMARIGSTVNMNLMGWLYSKIEALLGSAGHTTLGITLMIGGITCILSLICALALAYLDQRAERILHKEQGKTGEVIKLTDVKDFSLPLWLIFIICVCYYVAVFPFIGLGKVFFTEKFGFSSQAASAINSVVYVISAPMSPVFGLLVDKTGKNIIWVLCAVAATLVSHMMLAFTMWNPWIAMCLLGLSYSLLACALWPMVAFVVPEHQLGTAYGFMQSIQNLGLAIISIIAGMILDSRGYLFLEVFFIACVSLSLLSVVLLYLVNRAQGGNLNYSARQREEIKFSHTE [MFSD1] | -0.268 |  |  | -0.327 | -0.307 | -0.166 |
| MKHINLSFAACGFLGIYHLGAASALCRHGKKLVKDVKAFAGASAGSLVASVLLTAPEKIEECNQFTYKFAEEIRRQSFGAVTPGYDFMARLRSGMESILPPSAHELAQNRLHVSITNAKTRENHLVSTFSSREDLIKVLLASSFVPIYAGLKLVEYKGQKWVDGGLTNALPILPVGRTVTISPFSGRLDISPQDKGQLDLYVNIAKQDIMLSLANLVRLNQALFPPSKRKMESLYQCGFDDTVKFLLKENWFE [PNPLA4] | 0.107 |  |  | -0.145 | 0.304 | 1.11 |
| MSWLFGVNKGPKGEGAGPPPPLPPAQPGAEGGGDRGLGDRPAPKDKWSNFDPTGLERAAKAARELEHSRYAKEALNLAQMQEQTLQLEQQSKLKEYEAAVEQLKSEQIRAQAEERRKTLSEETRQHQARAQYQDKLARQRYEDQLKQQQLLNEENLRKQEESVQKQEAMRRATVEREMELRHKNEMLRVETEARARAKAERENADIIREQIRLKASEHRQTVLESIRTAGTLFGEGFRAFVTDRDKVTATVAGLTLLAVGVYSAKNATAVTGRFIEARLGKPSLVRETSRITVLEALRHPIQVSRRLLSRPQDVLEGVVLSPSLEARVRDIAIATRNTKKNRGLYRHILLYGPPGTGKTLFAKKLALHSGMDYAIMTGGDVAPMGREGVTAMHKLFDWANTSRRGLLLFMDEADAFLRKRATEEISKDLRATLNAFLYHMGQHSNKFMLVLASNLPEQFDCAINSRIDVMVHFDLPQQEERERLVRLHFDNCVLKPATEGKRRLKLAQFDYGRKCSEVARLTEGMSGREIAQLAVSWQATAYASKDGVLTEAMMDACVQDAVQQYRQKMRWLKAEGPGRGVEHPLSGVQGETLTSWSLATDPSYPCLAGPCTFRICSWMGTGLCPGPLSPRMSCGGGRPFCPPGHPLL [ATAD3B] | -0.105 |  |  | -0.00813 | 0.595 | 0.439 |

— the supplement of paper PMC5998384
